We go through 2 molecules from publication PMC8639466.

For series [1], the target named is hSSRP1-PH2 (Leu101-Thr195) (human). Briefly: SEC; molecular weight calibration of the single protein in solution. (In general: SEC sorts molecules by how far they enter the pores of the column.)
Series [2] deals with hSSRP1-HMG520-616 (Homo sapiens, UniProt Q08945 520-616). Briefly: EMSA; EMSA: 5 uM DNA, 137 mM NaCl, 2.7 mM KCl, 10 mM Na2HPO4, 2 mM KH2PO4 pH 7.4, 30 min on ice, 12% native PAGE; single-molecule: 10 mM Tris, 20 mM EDTA, 25 mM KCl. Particulars: protein: recombinant; tags: GST or His-SUMO fusion vector; GST cleaved; label: 5'-FAM on strand 1; blunt. For orientation: In EMSA bound probe runs differently from free probe, usually more slowly.
Sequence of hSSRP1-HMG520-616 (Q08945 520-616): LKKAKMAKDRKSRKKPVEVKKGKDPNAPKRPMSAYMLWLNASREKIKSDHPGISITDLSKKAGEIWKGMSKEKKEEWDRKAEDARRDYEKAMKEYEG

Series [3] addresses hSSRP1-HMG546-616 (Homo sapiens, UniProt Q08945 546-616). Described as above. The note with it: protein: recombinant; tags: GST or His-SUMO fusion vector; GST cleaved; label: 5'-FAM on strand 1; blunt.

A word on the stoichiometry N: it is the number of molecules, sites or subunits per partner or assembly.

Sequence of hSSRP1-HMG546-616 (Q08945 546-616): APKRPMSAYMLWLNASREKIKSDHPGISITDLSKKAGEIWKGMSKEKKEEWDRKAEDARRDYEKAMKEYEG

On to “hSSRP1-PH2 (Leu101-Thr195) (domain or fragment)”, for which the stoichiometry N in series [1] worked out at 4.

B1: 15 bp FAM GT-rich dsDNA (dsDNA)
DNA 1: GGGGTGATTGTTCAG
DNA 2: CTGAACAATCACCCC
Take B1: the binding result in series [2] is “binds”; in series [3], “no binding”.
